Data from patent US7125658B2, “Small protein that interacts with a ribonucleotide reductase subunit and uses thereof” (The Trustees of Columbia University in the City of New York, priority 1998, dated 2006).

Biological target: T1, yeast Rnr1p (Saccharomyces cerevisiae, UniProt P21524)
T1 construct: made in house; host or cells: E. coli BL21 (DE3), pET3a
T1 sequence (P21524 1-888): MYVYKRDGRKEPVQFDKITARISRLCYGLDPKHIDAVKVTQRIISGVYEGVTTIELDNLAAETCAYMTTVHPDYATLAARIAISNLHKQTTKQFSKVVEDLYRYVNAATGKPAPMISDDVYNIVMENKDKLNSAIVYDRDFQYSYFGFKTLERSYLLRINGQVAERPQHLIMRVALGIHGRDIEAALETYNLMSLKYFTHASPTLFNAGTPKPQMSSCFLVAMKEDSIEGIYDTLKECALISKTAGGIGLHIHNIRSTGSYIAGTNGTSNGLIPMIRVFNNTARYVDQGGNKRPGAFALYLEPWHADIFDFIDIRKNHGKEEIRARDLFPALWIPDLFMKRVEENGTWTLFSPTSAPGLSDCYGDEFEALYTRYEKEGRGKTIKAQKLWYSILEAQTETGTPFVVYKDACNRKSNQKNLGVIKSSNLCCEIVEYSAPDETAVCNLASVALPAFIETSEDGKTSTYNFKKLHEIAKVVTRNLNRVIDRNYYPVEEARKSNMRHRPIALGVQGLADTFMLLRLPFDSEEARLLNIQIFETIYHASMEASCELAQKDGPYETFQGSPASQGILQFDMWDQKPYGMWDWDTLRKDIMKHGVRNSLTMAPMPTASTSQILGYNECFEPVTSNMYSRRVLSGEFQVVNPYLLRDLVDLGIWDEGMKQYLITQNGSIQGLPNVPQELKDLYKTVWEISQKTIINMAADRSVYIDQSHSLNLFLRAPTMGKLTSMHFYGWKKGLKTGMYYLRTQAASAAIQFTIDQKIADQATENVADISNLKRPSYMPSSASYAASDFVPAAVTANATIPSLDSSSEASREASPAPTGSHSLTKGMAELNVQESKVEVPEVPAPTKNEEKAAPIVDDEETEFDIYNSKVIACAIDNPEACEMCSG
Assay: BIAcore biosensor analysis, immobilized Sml1p and yeast Rnr1p
Assay type: binding
Experimental: BIAcore biosensor analysis. The interaction between Sml1p and either yeast Rnr1p or mouse R1 protein was studied by biosensor analysis using the BIAcore method (Biacore AB). The Sml1 protein was prepared in 10 mM sodium acetate, pH 5.2, at a concentration of 0.44 mg/ml; it was then immobilized on the dextran layer of the sensor chip as described previously for the mouse R2 protein (17). The ligand proteins were equilibrated with running buffer (10 mM Hepes-KOH, pH 7.4, 200 mM potassium acetate, 1 mM EDTA, 5 mM magnesium acetate and 0.05% Surfactant P20 (BIAcore). The interactions were studied at a constant temperature of 22° C. and a constant flow of 5 μl/min. Kinetics for the interaction of Sml1p with yeast Rnr1p was determined by allowing the immobilized Sml1p to interact with increasing concentrations of Rnr1p (18). The resonance unit (RU) is proportional to the mass, and 1 RU corresponds to a surface concentration of 1 pg of protein/mm^2 of the 100 nm thick dextran layer (19).
Kinetic studies of the interaction between the Rnr1 and Sml1 proteins using a biosensor technique. To obtain a quantitative description of the Rnr1p and Sml1p interaction, we immobilized the Sml1 protein to the dextran layer of a sensor chip, and then injected a series of solutions containing increasing concentrations of Rnr1p to the same sensor chip. The immobilization of Sml1p at a concentration of 0.44 mg/ml gave an increase of 91 resonance units (RU), which correspond to 91 pg/mm^2. With a surface of 0.8 mm 2, 91 RU corresponds to a total of 72.8 pg of bound Sml1p, which can be compared with the total injected amount of 15.4 μg. This low degree of attachment (only 0.0005%) makes it unlikely that the protein is attached to multiple binding sites.
In control experiments, where the same series of Rnr1p solutions passed a sensor chip without immobilized Sml1p, a “bulk effect” gave a response of only about 60 RU. The same background value of about 60 RU was observed when bovine serum albumin or Rnr2p/Rnr4p heterodimer was injected at a concentration of 0.1 mg/ml (data not shown). In FIG. 1B, the response at equilibrium is plotted against the concentration of injected Rnr1p. […] These values correspond to 691 pg/mm^2 or a total of 553 pg or 5.5 fmol Rnr1p monomer bound to about 6.2 fmol immobilized Sml1p, i.e. nearly one Rnr1p monomer bound per molecule of immobilized Sml1p. […] Calculating the equilibrium dissociation constant from these rate constants gave a K0 of about 0.25 μM, which is close to the directly determined K0.

[1] = BIAevaluation software, lower curves of FIG. 12A

B1: Sml1p: 104 amino acid yeast protein encoded by YML058w (SML1) that binds Rnr1 and inhibits ribonucleotide reductase; recombinant, expressed in E. coli (protein)
chain: MQNSQDYFYAQNRCQQQQAPSTLRTVTMAEFRRVPLPPMAEVPMLSTQNSMGSSASASASSLEMWEKDLEERLNSIDHDMNNNKFGSGELKSMFNQGKVEEMDF
association rate constant [1]: about 153000 M^1s^−1
dissociation rate constant [1]: 0.04 s⁻¹
maximal binding (Rnr1p bound to immobilized Sml1p (91 RU)): 691 RU
Kd (immobilized Sml1p, mobile phase Rnr1p, 22° C., response at equilibrium fitted to one site binding model, read-out: equilibrium dissociation constant (KD)): 400 nM
